Measured values as given in patent publication US20210403593A1 (TIZONA THERAPEUTICS, published 2021).

T1: cynomolgus macaque (Macaca fascicularis) CD39 (Macaca fascicularis, UniProt P49961 7-510 (human entry))
T1 construct: On engineered CHO cells and on primary cyno B cells and monocytes; also called cyno CD39; cCD39
T1 chain: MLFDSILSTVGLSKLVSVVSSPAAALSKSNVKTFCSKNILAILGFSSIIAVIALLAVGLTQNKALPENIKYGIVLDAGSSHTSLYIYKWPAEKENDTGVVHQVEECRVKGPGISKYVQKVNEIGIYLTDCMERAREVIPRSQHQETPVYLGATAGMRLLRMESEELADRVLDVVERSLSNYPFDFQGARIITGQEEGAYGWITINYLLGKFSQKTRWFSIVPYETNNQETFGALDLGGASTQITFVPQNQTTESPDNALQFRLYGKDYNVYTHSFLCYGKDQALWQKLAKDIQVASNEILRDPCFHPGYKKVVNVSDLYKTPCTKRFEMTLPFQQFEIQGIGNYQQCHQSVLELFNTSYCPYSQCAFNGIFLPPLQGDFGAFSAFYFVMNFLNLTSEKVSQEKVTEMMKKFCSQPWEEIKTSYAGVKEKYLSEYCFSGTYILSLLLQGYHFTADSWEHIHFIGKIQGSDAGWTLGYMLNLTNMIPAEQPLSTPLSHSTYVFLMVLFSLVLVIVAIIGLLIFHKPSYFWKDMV

T2: human CD39 (cellular) (human, UniProt P49961 1-510)
T2 construct: Same protein on engineered CHO cells and on cells that express it endogenously; also called hCD39; cellular CD39
T2 sequence: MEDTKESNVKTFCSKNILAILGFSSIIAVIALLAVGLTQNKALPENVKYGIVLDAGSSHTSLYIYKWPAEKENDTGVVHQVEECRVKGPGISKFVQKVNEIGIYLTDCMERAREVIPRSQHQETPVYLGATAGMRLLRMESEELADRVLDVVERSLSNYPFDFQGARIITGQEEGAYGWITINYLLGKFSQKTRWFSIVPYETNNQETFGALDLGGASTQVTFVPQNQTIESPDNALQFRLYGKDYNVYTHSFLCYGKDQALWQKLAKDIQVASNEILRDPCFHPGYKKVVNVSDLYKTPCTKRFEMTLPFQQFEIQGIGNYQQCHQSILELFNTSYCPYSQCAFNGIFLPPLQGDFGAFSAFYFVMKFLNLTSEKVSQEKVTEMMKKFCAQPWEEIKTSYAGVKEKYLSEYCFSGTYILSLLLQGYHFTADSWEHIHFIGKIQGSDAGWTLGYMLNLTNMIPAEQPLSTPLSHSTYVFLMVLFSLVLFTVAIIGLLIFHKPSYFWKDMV

T3: Chimera #4 (Homo sapiens (Human), UniProt P49961 1-510)
T3 construct: Expressed on CHO cells
T3 chain: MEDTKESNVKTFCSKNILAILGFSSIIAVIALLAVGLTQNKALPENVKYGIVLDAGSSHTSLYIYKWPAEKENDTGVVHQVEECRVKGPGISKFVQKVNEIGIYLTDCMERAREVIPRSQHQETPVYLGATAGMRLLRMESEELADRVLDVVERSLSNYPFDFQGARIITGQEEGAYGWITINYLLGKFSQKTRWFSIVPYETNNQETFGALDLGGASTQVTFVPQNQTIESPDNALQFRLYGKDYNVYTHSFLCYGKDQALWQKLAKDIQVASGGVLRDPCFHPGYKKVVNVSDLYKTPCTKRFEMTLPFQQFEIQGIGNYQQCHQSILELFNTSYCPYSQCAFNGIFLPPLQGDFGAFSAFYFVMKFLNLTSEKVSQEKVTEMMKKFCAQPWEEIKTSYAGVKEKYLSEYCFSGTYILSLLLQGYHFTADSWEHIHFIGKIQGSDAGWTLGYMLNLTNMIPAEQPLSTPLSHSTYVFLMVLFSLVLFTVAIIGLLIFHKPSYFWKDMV

T4: Chimera #2 (human, UniProt P49961 1-510)
T4 construct: Expressed on CHO cells; also called human-mouse Chimera #2
T4 chain: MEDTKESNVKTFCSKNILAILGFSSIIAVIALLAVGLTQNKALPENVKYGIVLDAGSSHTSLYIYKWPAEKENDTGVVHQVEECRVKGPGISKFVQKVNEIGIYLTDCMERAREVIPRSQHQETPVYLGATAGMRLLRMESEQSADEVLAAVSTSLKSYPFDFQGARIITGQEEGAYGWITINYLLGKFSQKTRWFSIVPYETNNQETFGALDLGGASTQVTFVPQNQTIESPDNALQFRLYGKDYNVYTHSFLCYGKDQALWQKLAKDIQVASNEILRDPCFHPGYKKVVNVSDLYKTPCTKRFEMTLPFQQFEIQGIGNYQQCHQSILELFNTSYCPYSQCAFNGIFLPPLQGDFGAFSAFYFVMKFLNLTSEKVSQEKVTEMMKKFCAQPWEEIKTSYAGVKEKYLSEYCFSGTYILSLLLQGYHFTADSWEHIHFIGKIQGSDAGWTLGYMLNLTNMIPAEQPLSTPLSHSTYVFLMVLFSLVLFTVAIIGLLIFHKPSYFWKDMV

T5: Chimera #10 (Homo sapiens (Human), UniProt P49961 1-510)
T5 construct: Expressed on CHO cells
T5 chain: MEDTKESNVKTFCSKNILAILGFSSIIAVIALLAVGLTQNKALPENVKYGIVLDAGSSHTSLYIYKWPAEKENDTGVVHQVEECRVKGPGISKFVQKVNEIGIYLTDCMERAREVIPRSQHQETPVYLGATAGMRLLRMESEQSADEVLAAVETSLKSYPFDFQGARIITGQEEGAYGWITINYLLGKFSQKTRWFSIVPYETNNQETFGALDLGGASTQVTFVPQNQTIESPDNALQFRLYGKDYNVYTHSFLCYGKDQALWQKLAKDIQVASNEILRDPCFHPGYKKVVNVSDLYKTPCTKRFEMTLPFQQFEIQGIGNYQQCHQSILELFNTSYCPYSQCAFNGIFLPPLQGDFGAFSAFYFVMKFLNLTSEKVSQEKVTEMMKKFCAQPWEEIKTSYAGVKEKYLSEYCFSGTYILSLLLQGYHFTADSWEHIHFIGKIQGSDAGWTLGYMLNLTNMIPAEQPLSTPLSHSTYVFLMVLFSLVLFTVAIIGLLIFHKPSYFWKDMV

T6: Chimera #9 (Homo sapiens (Human), UniProt P49961 1-510)
T6 construct: Expressed on CHO cells
T6 chain: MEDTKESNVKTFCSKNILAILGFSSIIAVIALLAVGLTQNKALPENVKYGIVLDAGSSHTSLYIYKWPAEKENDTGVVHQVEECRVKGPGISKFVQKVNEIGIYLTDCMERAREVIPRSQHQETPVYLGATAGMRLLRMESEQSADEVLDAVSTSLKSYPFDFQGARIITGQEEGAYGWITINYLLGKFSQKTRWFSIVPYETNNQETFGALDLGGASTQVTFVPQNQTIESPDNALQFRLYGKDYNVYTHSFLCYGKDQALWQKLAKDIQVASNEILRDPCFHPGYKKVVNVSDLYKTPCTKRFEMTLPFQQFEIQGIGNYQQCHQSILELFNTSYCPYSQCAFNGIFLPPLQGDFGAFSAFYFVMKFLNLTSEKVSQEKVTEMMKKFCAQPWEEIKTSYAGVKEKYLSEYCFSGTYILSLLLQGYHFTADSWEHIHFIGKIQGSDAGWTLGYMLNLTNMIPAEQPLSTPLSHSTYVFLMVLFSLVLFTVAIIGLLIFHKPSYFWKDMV


What was measured:
[1] = biological target: T1, cynomolgus macaque (Macaca …); assay: flow cytometry, 100 nM IgG, MFI on CHO-cCD39 / MFI on parental CHO;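 further: antibodies bound to the cells for 30 min in PBS, then bound IgG was revealed with a fluorescent goat anti-human IgG secondary antibody, 20 min on ice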
Protocol: (§1) 100 nanomolar IgGs (each antibody is indicated as a unique clone number in the FIG.) were incubated at 25° C. for 30 minutes on ice in phosphate buffered saline (PBS) with parental CHO cells or CHO cells engineered to express either human or cynomolgus macaque (Macaca fascicularis) CD39 (CHO CD39 cells). Cells were then washed with ice cold PBS and incubated with a fluorescently labeled goat-anti-human IgG for 20 minutes on ice. Cells were washed and resuspended in ice cold PBS prior to analysis by flow cytometry.

human CD39 (cellular) = biological target: T2, human CD39 (cellular); assay: flow cytometry, 100 nM IgG, MFI on CHO-hCD39 / MFI on parental CHO;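 further: cells exposed to IgG for 30 min on ice in PBS, bound antibody then revealed with a fluorescent goat anti-human IgG secondary (20 min, on ice)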
Protocol: as §1

Chimera #4 = biological target: T3, Chimera #4; assay: FACS on CHO cells, 15 ug/ml; human M1-S274 + mouse GGV + human L278-V510
Protocol: (§2) The chimeras were expressed in CHO cells and the ability of anti-human CD39 antibodies to bind the chimeras tested via FACS. In brief, cells were washed and blocked in FACS buffer (PBS/2% FBS) for 30 min on ice. […] After 2 washes, cells were resuspended in FACS buffer and analyzed on BD Fortessa. Data was processed with FlowJo.

Chimera #2 = biological target: T4, Chimera #2; assay: FACS on CHO cells; human M1-E142 + mouse Q143-S158 ([..]) + human Y159-V510
Protocol: as §2

Chimera #10 = biological target: T5, Chimera #10; assay: FACS on CHO cells, 15 ug/ml; Chimera 2 with human E153 ([..])
Protocol: as §2

Chimera #9 = biological target: T6, Chimera #9; assay: FACS on CHO cells, 15 ug/ml; Chimera 2 with human D150 ([..])
Protocol: The chimeras were expressed in CHO cells and the ability of anti-human CD39 antibodies to bind the chimeras tested via FACS. In brief, cells were washed and blocked in FACS buffer (PBS/2% FBS) for 30 min on ice. […] After 2 washes, cells were resuspended in FACS buffer and analyzed on BD Fortessa. Data was processed with FlowJo. Positive binding was scored as “yes” and lack of binding was scored as “NO” and examples of FACS plots used to generate this table are in FIGS. 14.F and 14.G.

Binder	Cell Binding (FOB) [1] [fold over background]	Cell Binding (FOB) (human CD39 (cellular)) [fold over background]	binding result (Chimera #4)	binding result (Chimera #2)	binding result (Chimera #10)	binding result (Chimera #9)
31873 (antibody, human IgG4 S228P, kappa, V domains shown) VH: QVQLVQSGAEVKKPGSSVKVSCKASGGTFSKYGISWVRQAPGQGLEWMGSIIPEFGIANYAQKFQGRVTITADESTSTAYMELSSLRSEDTAVYYCARESGGYRDHRLGVWGQGTMVTVSS VL: EIVMTQSPATLSVSPGERATLSCRASQSVGSNLAWYQQKPGQAPRLLIYGASTRASGIPARFSGSGSGTEFTLTISSLQSEDFAVYYCQQYLLWPLTFGGGTKVEIKR	5080	1320	binds			
31414 (antibody, human IgG4 S228P, kappa, V domains shown) VH: QVQLVQSGAEVKKPGASVKVSCKASGYTFKSYEMHWVRQAPGQGLEWMGRINPSVGSTWYAQKFQGRVTMTRDTSTSTVYMELSSLRSEDTAVYYCARGKREGGTEYLRNWGQGTLVTVSS VL: EIVLTQSPGTLSLSPGERATLSCRASQSVSSSYLAWYQQKPGQAPRLLIYGASSRATGIPDRFSGSGSGTDFTLTISRLEPEDFAVYYCQQYHSYITFGGGTKVEIKR	3570	1240	binds	no binding (tested: 15 ug/ml)	binds	binds
31418 (antibody, human IgG4 S228P, kappa, V domains shown) VH: QVQLVQSGAEVKKPGASVKVSCKASGYTFKSYEMHWVRQAPGQGLEWMGRINPSGGSTWYAQKFQGRVTMTRDTSTSTVYMELSSLRSEDTAVYYCARGKREGGTEYLRHWGQGTLVTVSS VL: EIVLTQSPGTLSLSPGERATLSCRASQSVSSSYLAWYQQKPGQAPRLLIYGASSRATGIPDRFSGSGSGTDFTLTISRLEPEDFAVYYCQQYYFYITFGGGTKVEIKR	3180	1080	binds	no binding (tested: 15 ug/ml)	binds	binds
